The values that follow come from patent publication US20180155451A1 (published 2018).

Experiment [1] has as its target T1, FcγRIIb, extracellular domain with C-terminal His tag (human, UniProt P31994 43-217).
T1 construct: extracellular domain; Soluble receptor expressed in FreeStyle293 cells; analyte in Biacore; also called FcgRIIb; 2b; not shown: C-terminal His tag
T1 sequence (looked up): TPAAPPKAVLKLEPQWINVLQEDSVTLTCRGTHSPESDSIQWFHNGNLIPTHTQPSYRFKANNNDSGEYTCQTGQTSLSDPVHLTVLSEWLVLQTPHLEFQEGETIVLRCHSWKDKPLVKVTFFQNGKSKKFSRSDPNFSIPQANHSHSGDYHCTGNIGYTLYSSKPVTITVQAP
Briefly: SPR (Biacore), captured antibody, FcγR as analyte. For orientation: SPR reads the build-up and loss of mass on a sensor chip optically.

The target of experiment [2] is T2, FcγRIIa H (FcγRIIa, type H allotype, His at position 131), extracellular domain with C-terminal His tag (human, UniProt P12318 34-217).
T2 construct: extracellular domain; Soluble receptor expressed in FreeStyle293 cells; analyte in Biacore; also called FcgRIIa H; 2aH; not shown: C-terminal His tag
T2 sequence (looked up): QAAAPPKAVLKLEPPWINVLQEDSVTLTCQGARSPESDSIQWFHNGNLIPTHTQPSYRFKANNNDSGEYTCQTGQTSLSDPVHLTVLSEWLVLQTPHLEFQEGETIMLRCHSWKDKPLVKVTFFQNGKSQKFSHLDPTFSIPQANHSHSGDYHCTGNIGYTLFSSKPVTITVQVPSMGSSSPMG
Briefly: SPR (Biacore), captured antibody, FcγR as analyte.

Experiment [3] addresses T2, FcγRIIa H (FcγRIIa, type H allotype, …). In words: ratio of He/Con_2aH to He/Con_2b (FcγRIIa H over FcγRIIb), SPR.
Experiment [4] concerns the target T3, FcγRIIIa extracellular domain with C-terminal His tag (human, UniProt P08637 17-208).
T3 construct: extracellular domain; also called FcgRIIIa; 3a
In words: SPR, relative to GpH7-A5/GpH7-B3/GpL16-k0.

Another experiment addresses T4, FcγRIIb (human, UniProt P31994 43-217).
T4 construct: extracellular domain; also called FcgRIIb; 2b
T4 sequence (looked up): T1 sequence (looked up)
Briefly: SPR (Biacore), antibody captured, FcγR as analyte; relative binding. How it is done:
The heterodimerized antibodies He Abs in which one of the H chains was introduced with an alteration were assayed for their binding activities to each activating FcγR and inhibitory FcγR according to the method described in Example 4. […] The activating FcγRs in FIGS. 26, 27, 28, and 29 are FcγRIa, FcγRIIa (R), FcγRIIa (H), and FcγRIIIa, respectively.
Analysis of interaction between objective antibody and the FcγR was carried out using Biacore T100 (GE Healthcare). HBS-EP+ (GE Healthcare) was used as the running buffer, and the measurement temperature was set to 25° C. Chips produced by immobilizing the antigen peptide by the amine coupling method to a Series S Sencor Chip CM5 (GE Healthcare), or alternatively, chips produced by allowing preliminarily biotinylated antigen peptides to interact with and immobilize onto a Series S Sensor Chip SA (certified) (GE Healthcare) were used. Antibodies of interest were captured onto an antigen peptide-immobilized chip, and allowed to interact to each FcγR diluted with running buffer. To regenerate and repeatedly use the chip, the antibodies captured on the chip were washed off by reacting 10 mM glycine-HCl, pH 1.5.

T3 sequence (P08637 17-208): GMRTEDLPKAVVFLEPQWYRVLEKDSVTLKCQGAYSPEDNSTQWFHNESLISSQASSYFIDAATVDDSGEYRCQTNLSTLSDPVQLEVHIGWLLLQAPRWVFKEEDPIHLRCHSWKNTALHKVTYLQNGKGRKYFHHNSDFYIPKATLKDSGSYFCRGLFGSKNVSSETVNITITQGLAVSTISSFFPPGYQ

B1: GpH7-A5/GpH7-B3 variant E269_03V/GpL16-k0 (antibody, human IgG1, kappa)
heavy 1: not shown
heavy 2: not shown
light: DIVMTQSPLSLPVTPGEPASISCQASESLVHSNRNTYLHWYLQKPGQSPQLLIYKVSNRFSGVPDRFSGSGSGTDFTLKISRVEAEDVGVYYCSQNTHVPPTFGQGTKVEIERTVAAPSVFIFPPSDEQLKSGTASVVCLLNNFYPREAKVQWKVDNALQSGNSQESVTEQDSKDSTYSLSSTLTLSKADYEKHKVYACEVTHQGLSSPVTKSFNRGEC
notes: Heterodimerized IgG1; mutation only in the GpH7-B3 chain; also called He Ab
Turning to B1, the He/Con_2b in experiment [1] was 45.1 relative, GpH7-A5/GpH7-B3/GpL16-k0 = 100. The He/Con_2aH in experiment [2] was 67.5 relative, GpH7-A5/GpH7-B3/GpL16-k0 = 100. The “He_2aH/2b (IIaH/IIb)” value in experiment [3] came out at 1.49.

B2: GpH7-A5/GpH7-B3 variant S337_18N/GpL16-k0 (antibody, human IgG1, kappa)
heavy 1: not shown
heavy 2: not shown
light: B1 light
notes: heterodimerized IgG1, mutation in one H chain only; also called He Ab
As to B2, in experiment [4], the He/Con_3a was 104 % of control (=100).

B3: GpH7-A5/GpH7-B3 variant D270_12R/GpL16-k0 (antibody, human IgG1, kappa)
heavy 1: not shown
heavy 2: not shown
light: B1 light
notes: as for B1
Consider B3, for which the He/Con_2b in experiment [1] is 18.3 relative, GpH7-A5/GpH7-B3/GpL16-k0 = 100. For the same molecule, in experiment [2], the He/Con_2aH was 39.5 relative, GpH7-A5/GpH7-B3/GpL16-k0 = 100. Moreover, the “He_2aH/2b (IIaH/IIb)” value in experiment [3] was 2.16.

B4: GpH7-A5/GpH7-B3 variant D265_20W/GpL16-k0 (antibody, human IgG1, kappa)
heavy 1: not shown
heavy 2: not shown
light: B1 light
notes: heterodimerized antibody, mutation in the GpH7-B3 chain only; also called He Ab
For the molecule B4, the “He/Con_2b (IIb binding)” value in the experiment with FcγRIIb is 1.1 % of GpH7-A5/GpH7-B3/GpL16-k0 (=100).

B5: GpH7-A5/GpH7-B3 variant D270_11K/GpL16-k0 (antibody, human IgG1, kappa)
heavy 1: not shown
heavy 2: not shown
light: B1 light
notes: as for B1
As for B5, the He/Con_2b in experiment [1] is 20.3 relative, GpH7-A5/GpH7-B3/GpL16-k0 = 100. Also, the He/Con_2aH in experiment [2] is 44 relative, GpH7-A5/GpH7-B3/GpL16-k0 = 100. The “He_2aH/2b (IIaH/IIb)” value in experiment [3] came out at 2.17.

B6: GpH7-A5/GpH7-B3 variant T335_07I/GpL16-k0 (antibody, human IgG1, kappa)
heavy 1: not shown
heavy 2: not shown
light: B1 light
notes: as for B2
For the molecule B6, in experiment [4], the He/Con_3a was 107 % of control (=100).

B7: GpH7-A5/GpH7-B3 variant E269_02A/GpL16-k0 (antibody, human IgG1, kappa)
heavy 1: not shown
heavy 2: not shown
light: B1 light
notes: as for B1
With B7, the He/Con_2b in experiment [1] was 49.9 relative, GpH7-A5/GpH7-B3/GpL16-k0 = 100. The He/Con_2aH in experiment [2] is 77.8 relative, GpH7-A5/GpH7-B3/GpL16-k0 = 100. The “He_2aH/2b (IIaH/IIb)” value in experiment [3] is 1.56.

B8: GpH7-A5/GpH7-B3 variant D270_20W/GpL16-k0 (antibody, human IgG1, kappa)
heavy 1: not shown
heavy 2: not shown
light: B1 light
notes: as for B1
On to B8, for which the He/Con_2b in experiment [1] is 34.7 relative, GpH7-A5/GpH7-B3/GpL16-k0 = 100. Also, the He/Con_2aH in experiment [2] was 60.2 relative, GpH7-A5/GpH7-B3/GpL16-k0 = 100. For the same molecule, the “He_2aH/2b (IIaH/IIb)” value in experiment [3] was 1.74.

B9: GpH7-A5/GpH7-B3 variant D270_19Q/GpL16-k0 (antibody, human IgG1, kappa)
heavy 1: not shown
heavy 2: not shown
light: B1 light
notes: as for B1
For the molecule B9, the He/Con_2b in experiment [1] is 48 relative, GpH7-A5/GpH7-B3/GpL16-k0 = 100. Besides, in experiment [2], the He/Con_2aH was 85 relative, GpH7-A5/GpH7-B3/GpL16-k0 = 100. In experiment [3], the “He_2aH/2b (IIaH/IIb)” value turned out to be 1.77.

B10: GpH7-A5/GpH7-B3 variant S267_02A/GpL16-k0 (antibody, human IgG1, kappa)
heavy 1: not shown
heavy 2: not shown
light: B1 light
notes: as for B2
Consider B10, for which the He/Con_3a in experiment [4] is 150 % of control (=100).

B11: GpH7-A5/GpH7-B3 variant D270_02A/GpL16-k0 (antibody, human IgG1, kappa)
heavy 1: not shown
heavy 2: not shown
light: B1 light
notes: as for B1
For B11, in experiment [1], the He/Con_2b was 48.3 relative, GpH7-A5/GpH7-B3/GpL16-k0 = 100. Moreover, the He/Con_2aH in experiment [2] is 76.4 relative, GpH7-A5/GpH7-B3/GpL16-k0 = 100. For the same molecule, the “He_2aH/2b (IIaH/IIb)” value in experiment [3] was found to be 1.58.

B12: GpH7-A5/GpH7-B3 variant D270_04F/GpL16-k0 (antibody, human IgG1, kappa)
heavy 1: not shown
heavy 2: not shown
light: B1 light
notes: as for B1
Take B12: in experiment [1], the He/Con_2b is 53.1 relative, GpH7-A5/GpH7-B3/GpL16-k0 = 100. The He/Con_2aH in experiment [2] was 75.4 relative, GpH7-A5/GpH7-B3/GpL16-k0 = 100. In addition, the “He_2aH/2b (IIaH/IIb)” value in experiment [3] was 1.42.

B13: GpH7-A5/GpH7-B3 variant S337_10E/GpL16-k0 (antibody, human IgG1, kappa)
heavy 1: not shown
heavy 2: not shown
light: B1 light
notes: as for B2
Take B13: the He/Con_3a in experiment [4] was 105 % of control (=100).

B14: GpH7-A5/GpH7-B3 variant D270_06M/GpL16-k0 (antibody, human IgG1, kappa)
heavy 1: not shown
heavy 2: not shown
light: B1 light
notes: as for B1
B14: in experiment [1], the He/Con_2b is 48.2 relative, GpH7-A5/GpH7-B3/GpL16-k0 = 100. Further, the He/Con_2aH in experiment [2] was 74.4 relative, GpH7-A5/GpH7-B3/GpL16-k0 = 100. In addition, the “He_2aH/2b (IIaH/IIb)” value in experiment [3] worked out at 1.54.

B15: GpH7-A5/GpH7-B3 variant S298_14T/GpL16-k0 (antibody, human IgG1, kappa)
heavy 1: not shown
heavy 2: not shown
light: B1 light
notes: as for B2
Turning to B15, the He/Con_3a in experiment [4] was 113 % of control (=100).

B16: GpH7-A5/GpH7-B3 variant D270_03V/GpL16-k0 (antibody, human IgG1, kappa)
heavy 1: not shown
heavy 2: not shown
light: B1 light
notes: as for B1
B16: the He/Con_2b in experiment [1] was 39.5 relative, GpH7-A5/GpH7-B3/GpL16-k0 = 100. The He/Con_2aH in experiment [2] is 61.8 relative, GpH7-A5/GpH7-B3/GpL16-k0 = 100. For the same molecule, the “He_2aH/2b (IIaH/IIb)” value in experiment [3] was found to be 1.56.

B17: GpH7-A5/GpH7-B3 variant D270_14T/GpL16-k0 (antibody, human IgG1, kappa)
heavy 1: not shown
heavy 2: not shown
light: B1 light
notes: as for B1
Consider B17, for which the He/Con_2b in experiment [1] is 57.8 relative, GpH7-A5/GpH7-B3/GpL16-k0 = 100. In experiment [2], the He/Con_2aH was 75.3 relative, GpH7-A5/GpH7-B3/GpL16-k0 = 100. Also, the “He_2aH/2b (IIaH/IIb)” value in experiment [3] is 1.3.
